Reference: article PMC4089490, “Structures of the NLRP14 pyrin domain reveal a conformational switch mechanism regulating its molecular interactions” (Acta Crystallographica Section D: Biological Crystallography, 2014)
Positions count from the first letter of the chain named. Numbers in names are those of the source.

B1: NLRP14 PYD (wild-type NLRP14 pyrin domain, residues Met1-Gln100) (domain or fragment, human, UniProt Q86W24 1-100, looked up)
chain: MADSSSSSFFPDFGLLLYLEELNKEELNTFKLFLKETMEPEHGLTPWNEVKKARREDLANLMKKYYPGEKAWSVSLKIFGKMNLKDLCERAKEEINWSAQ
notes: NLRP14 pyrin domain, human, residues Met1-Gln100, amplified from human NLRP14 cDNA GenBank NM_176822.3; The crystal structure (PDB 4n1j) was solved from selenomethionine-labelled protein expressed in SeMet minimal medium and purified identically; SEC used the native protein; also called wild-type NLRP14 PYD; wild-type PYD; source: E. coli BL21 Star (DE3), purified (Ni-NTA, eluted by thrombin …)
B2: NLRP14 PYD D86V (protein)
chain: B1 chain with D86V

Tests used:
[1] = biological target: Q86W24; assay: SEC; analytical Superdex 75 10/300, 20 mM Tris pH 8.0, 150 mM NaCl, 5 mM TCEP; 700 µl at 1 mg/ml injected; monomer:dimer ratio from peak areas
[2] = biological target: the molecule itself; assay: as above

| Protein | dimer fraction (SEC peak area) [1] | stoichiometry N [2] |
| --- | --- | --- |
| B1 | dimeric (17%) | 2 |
| B2 | 12.13 ml, 24% |  |
